Source: patent publication US20060246067A1

Molecular target: T cell Receptor (TcR) on human peripheral blood T lymphocytes
Experiment: cell-based or functional assay

Row | Substance | P50% (human PBL proliferation, 3H thymidine incorporation) | Reduction (fold, against SMEZ-2 wild type)
1 | SMEZ-2 W75L | > 10 ng/mL | > 100000 fold
2 | SMEZ-2 Y18A | > 10 ng/mL | > 100000 fold
3 | SMEZ-2 D42C | 10 ng/mL | 10000 fold
4 | SMEZ-2 W75L.D42C.K182Q.Y18A. (M2) | > 10 ng/mL | > 100000 fold
5 | SMEZ-2 W75L.D42C.K182Q (M1) | > 10 ng/mL | > 100000 fold
